Laboratory results: patent publication US20210079083A1 (INSTITUTE FOR BASIC SCIENCE, published 2021)

T1: Human Angiopoietin-2 full-length (hAng2) (human, UniProt O15123 19-496)
T1 construct: The cell assays used full-length hAng2 from R&D Systems; also called human Ang2; A2
T1 sequence: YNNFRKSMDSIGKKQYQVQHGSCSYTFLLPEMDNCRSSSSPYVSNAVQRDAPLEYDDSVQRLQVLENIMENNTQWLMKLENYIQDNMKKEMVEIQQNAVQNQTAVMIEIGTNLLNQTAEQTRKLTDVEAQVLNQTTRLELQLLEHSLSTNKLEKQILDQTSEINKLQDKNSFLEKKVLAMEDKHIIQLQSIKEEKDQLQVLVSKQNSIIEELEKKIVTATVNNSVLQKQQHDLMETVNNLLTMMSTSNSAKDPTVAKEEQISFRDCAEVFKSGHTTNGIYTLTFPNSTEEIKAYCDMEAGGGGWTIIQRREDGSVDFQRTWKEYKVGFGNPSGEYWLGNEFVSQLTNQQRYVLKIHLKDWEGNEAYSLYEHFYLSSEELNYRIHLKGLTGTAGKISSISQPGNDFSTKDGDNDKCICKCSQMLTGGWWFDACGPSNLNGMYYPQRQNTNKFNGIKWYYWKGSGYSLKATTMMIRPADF


The binders below were run against T1, Human Angiopoietin-2 full-length (hAng2) (assay: BLI (Octet), antibody fixed on AR2G sensor, hAng2 3.125-50 nM in solution, 1:1 global fit).
Experimental: The affinity of humanized anti-Ang2 antibody against hAng2 was measured using Octet system (ForteBio). Specifically, buffer and samples were measured in total 200 μl/well using Black 96-well plates (96 well F-type black plates, Greiner). […] After the hydration, humanized anti-Ang2 antibody was diluted in 10 mM sodium acetate, pH 6.0 buffer at a concentration of 10 μg/ml, fixed on AR2G biosensor, and blocked with 1M ethanolamine. The recombinant hAng2 was diluted to 50, 25, 12.5, 6.25, 3.125, and 0 nM with 1× kinetic buffer, and subjected to association for 300 sec and dissociation for 900 sec.
The affinities of humanized 2C8 antibodies to hAng2 were in Table 15.

| Binder | Kd | koff | kon |
| --- | --- | --- | --- |
| humanized anti-Ang2 antibody 2C8H32 (antibody, V domains shown, Full-length human IgG1) VH: QVQLVQSGAEVKKPGASVKVSCKASGYSFTSYWMHWVRQAPGQGLEWIGMIDPSDSETRLNQKFKDKASMTRDTSTSTVYMELSSLRSEDTAVYYCARRFYYGSDWYFDVWGQGTLVTVSS VL: DIQLTQSPSFLSASVGDRVSITCKASQDVGTAVAWYQQKPGKAPKLLIYWASTRHTGVPDRFSGSGSGTEFTLTISSLQPEDFATYYCQQYSSYPLTFGQGTKVEIK | 0.197 nM | 1.49e-05 s⁻¹ | 75700 M⁻¹ s⁻¹ |
| 4B9H11G4 (human IgG4 class antibody of 4B9H11) (antibody, V domains shown, The heavy chain constant region was replaced by an IgG4 class constant region; The sentence prints '4B9 heavy chain gene' where 4B9H11 is meant; also called 4B9H11-IgG4) VH: QVQLVESGGGLVKPGGSLRLSCAASGFTFSDYYMYWIRQAPGKGLEWVSTISVGGSFTYYPDSVKGRFTISRDNAKNSLYLQMNSLRAEDTAVYYCARDWGLRPWFVYWGQGTLVTVSS VL: DIQMTQSPSSLSASVGDRVTITCKASQDVSTAVAWYQQKPGKAPKLLIYWASTRHTGVPSRFSGSGSGTDFTLTISSLQPEDFATYYCQQHYSTPPTFGQGTKVEIK | 0.08 nM | 3.46e-05 s⁻¹ | 432000 M⁻¹ s⁻¹ |
| humanized anti-Ang2 antibody 4B9H21 (antibody, V domains shown, Full-length human IgG1) VH: QVQLVESGGGLVKPGGSLRLSCAASGFTFSDYYMYWVRQAPGKGLEWVSTISVGGSFTYYPDSVKGRFTISRDNAKNSLYLQMNSLRAEDTAVYYCARDWGLRPWFVYWGQGTLVTVSS VL: DIQMTQSPSSLSASVGDRVTITCKASQDVSTAVAWYQQKPGKAPKLLIYWASTRHTGVPSRFSGSGSGTDFTLTISSLQPEDFATYYCQQHYSTPPTFGQGTKVEIK | 0.121 nM | 8.94e-06 s⁻¹ | 73700 M⁻¹ s⁻¹ |
| humanized anti-Ang2 antibody 2C8H23 (antibody, V domains shown, Full-length human IgG1) VH: QVQLVQSGAEVKKPGASVKVSCKASGYSFTSYWMHWVRQAPGQGLEWIGMIDPSDSETRLNQKFKDRVTMTRDTSTSTVYMELSSLRSEDTAVYYCARRFYYGSDWYFDVWGQGTLVTVSS VL: DIQLTQSPSFLSASVGDRVSITCKASQDVGTAVAWYQQKPGKAPKLLIYWASTRHTGVPDRFSGSGSGTEFTLTISSLQPEDFADYFCQQYSSYPLTFGQGTKVEIK | 0.287 nM | 2.28e-05 s⁻¹ | 79500 M⁻¹ s⁻¹ |
| humanized anti-Ang2 antibody 2C8H13 (antibody, V domains shown, Full-length human IgG1) VH: QVQLVQSGAEVKKPGASVKVSCKASGYTFTSYWMHWVRQAPGQGLEWMGMIDPSDSETRLNQKFKDRVTMTRDTSTSTVYMELSSLRSEDTAVYYCARRFYYGSDWYFDVWGQGTLVTVSS VL: DIQLTQSPSFLSASVGDRVSITCKASQDVGTAVAWYQQKPGKAPKLLIYWASTRHTGVPDRFSGSGSGTEFTLTISSLQPEDFADYFCQQYSSYPLTFGQGTKVEIK | 0.246 nM | 2.77e-05 s⁻¹ | 113000 M⁻¹ s⁻¹ |
| humanized anti-Ang2 antibody 2C8H52 (antibody, V domains shown, Full-length human IgG1) VH: QVQLVQSGAEVKKPGASVKVSCKASGYSFTSYWMHWVKQAPGQGLEWIGMIDPSDSETRLNQKFKDKASLTVDTSTSTVYMELSSLRSEDTAVYYCARRFYYGSDWYFDVWGQGTLVTVSS VL: DIQLTQSPSFLSASVGDRVSITCKASQDVGTAVAWYQQKPGKAPKLLIYWASTRHTGVPDRFSGSGSGTEFTLTISSLQPEDFATYYCQQYSSYPLTFGQGTKVEIK | 0.243 nM | 1.99e-05 s⁻¹ | 81900 M⁻¹ s⁻¹ |
| humanized anti-Ang2 antibody 2C8H21 (antibody, V domains shown, Full-length human IgG1) VH: QVQLVQSGAEVKKPGASVKVSCKASGYSFTSYWMHWVRQAPGQGLEWIGMIDPSDSETRLNQKFKDRVTMTRDTSTSTVYMELSSLRSEDTAVYYCARRFYYGSDWYFDVWGQGTLVTVSS VL: DIQLTQSPSFLSASVGDRVTITCKASQDVGTAVAWYQQKPGKAPKLLIYWASTRHTGVPSRFSGSGSGTEFTLTISSLQPEDFATYYCQQYSSYPLTFGQGTKVEIK | 0.135 nM | 1.5e-05 s⁻¹ | 111000 M⁻¹ s⁻¹ |
| 2C8H11G4 (human IgG4 class antibody of 2C8H11) (antibody, V domains shown, The heavy chain constant region (CH1-hinge-CH2-CH3) was replaced by an IgG4 class constant region; also called 2C8H11-IgG4) VH: QVQLVQSGAEVKKPGASVKVSCKASGYTFTSYWMHWVRQAPGQGLEWMGMIDPSDSETRLNQKFKDRVTMTRDTSTSTVYMELSSLRSEDTAVYYCARRFYYGSDWYFDVWGQGTLVTVSS VL: DIQLTQSPSFLSASVGDRVTITCKASQDVGTAVAWYQQKPGKAPKLLIYWASTRHTGVPSRFSGSGSGTEFTLTISSLQPEDFATYYCQQYSSYPLTFGQGTKVEIK | 0.0105 nM | 4.35e-06 s⁻¹ | 415000 M⁻¹ s⁻¹ |
| humanized anti-Ang2 antibody 2C8H41 (antibody, V domains shown, Full-length human IgG1) VH: QVQLVQSGAEVKKPGASVKVSCKASGYSFTSYWMHWVKQAPGQGLEWIGMIDPSDSETRLNQKFKDKASMTRDTSTSTVYMELSSLRSEDTAVYYCARRFYYGSDWYFDVWGQGTLVTVSS VL: DIQLTQSPSFLSASVGDRVTITCKASQDVGTAVAWYQQKPGKAPKLLIYWASTRHTGVPSRFSGSGSGTEFTLTISSLQPEDFATYYCQQYSSYPLTFGQGTKVEIK | 0.249 nM | 1.67e-05 s⁻¹ | 67000 M⁻¹ s⁻¹ |

Continued by falling Kd, values first:

| Kd | koff | kon | Binder |
| --- | --- | --- | --- |
| 0.384 nM | 3.11e-05 s⁻¹ | 80900 M⁻¹ s⁻¹ | humanized anti-Ang2 antibody 2C8H53 (antibody, V domains shown, Full-length human IgG1) VH: QVQLVQSGAEVKKPGASVKVSCKASGYSFTSYWMHWVKQAPGQGLEWIGMIDPSDSETRLNQKFKDKASLTVDTSTSTVYMELSSLRSEDTAVYYCARRFYYGSDWYFDVWGQGTLVTVSS VL: DIQLTQSPSFLSASVGDRVSITCKASQDVGTAVAWYQQKPGKAPKLLIYWASTRHTGVPDRFSGSGSGTEFTLTISSLQPEDFADYFCQQYSSYPLTFGQGTKVEIK |
| 0.381 nM | 3.07e-05 s⁻¹ | 80600 M⁻¹ s⁻¹ | humanized anti-Ang2 antibody 2C8H42 (antibody, V domains shown, Full-length human IgG1) VH: QVQLVQSGAEVKKPGASVKVSCKASGYSFTSYWMHWVKQAPGQGLEWIGMIDPSDSETRLNQKFKDKASMTRDTSTSTVYMELSSLRSEDTAVYYCARRFYYGSDWYFDVWGQGTLVTVSS VL: DIQLTQSPSFLSASVGDRVSITCKASQDVGTAVAWYQQKPGKAPKLLIYWASTRHTGVPDRFSGSGSGTEFTLTISSLQPEDFATYYCQQYSSYPLTFGQGTKVEIK |
| 0.373 nM | 2.65e-05 s⁻¹ | 71100 M⁻¹ s⁻¹ | humanized anti-Ang2 antibody 2C8H43 (antibody, V domains shown, Full-length human IgG1) VH: QVQLVQSGAEVKKPGASVKVSCKASGYSFTSYWMHWVKQAPGQGLEWIGMIDPSDSETRLNQKFKDKASMTRDTSTSTVYMELSSLRSEDTAVYYCARRFYYGSDWYFDVWGQGTLVTVSS VL: DIQLTQSPSFLSASVGDRVSITCKASQDVGTAVAWYQQKPGKAPKLLIYWASTRHTGVPDRFSGSGSGTEFTLTISSLQPEDFADYFCQQYSSYPLTFGQGTKVEIK |
| 0.266 nM | 2.21e-05 s⁻¹ | 83200 M⁻¹ s⁻¹ | humanized anti-Ang2 antibody 2C8H31 (antibody, V domains shown, Full-length human IgG1) VH: QVQLVQSGAEVKKPGASVKVSCKASGYSFTSYWMHWVRQAPGQGLEWIGMIDPSDSETRLNQKFKDKASMTRDTSTSTVYMELSSLRSEDTAVYYCARRFYYGSDWYFDVWGQGTLVTVSS VL: DIQLTQSPSFLSASVGDRVTITCKASQDVGTAVAWYQQKPGKAPKLLIYWASTRHTGVPSRFSGSGSGTEFTLTISSLQPEDFATYYCQQYSSYPLTFGQGTKVEIK |
| 0.139 nM | 1.33e-05 s⁻¹ | 95200 M⁻¹ s⁻¹ | humanized anti-Ang2 antibody 2C8H12 (antibody, V domains shown, Full-length human IgG1) VH: QVQLVQSGAEVKKPGASVKVSCKASGYTFTSYWMHWVRQAPGQGLEWMGMIDPSDSETRLNQKFKDRVTMTRDTSTSTVYMELSSLRSEDTAVYYCARRFYYGSDWYFDVWGQGTLVTVSS VL: DIQLTQSPSFLSASVGDRVSITCKASQDVGTAVAWYQQKPGKAPKLLIYWASTRHTGVPDRFSGSGSGTEFTLTISSLQPEDFATYYCQQYSSYPLTFGQGTKVEIK |
| 0.137 nM | 9.61e-06 s⁻¹ | 70200 M⁻¹ s⁻¹ | humanized anti-Ang2 antibody 2C8H51 (antibody, V domains shown, Full-length human IgG1) VH: QVQLVQSGAEVKKPGASVKVSCKASGYSFTSYWMHWVKQAPGQGLEWIGMIDPSDSETRLNQKFKDKASLTVDTSTSTVYMELSSLRSEDTAVYYCARRFYYGSDWYFDVWGQGTLVTVSS VL: DIQLTQSPSFLSASVGDRVTITCKASQDVGTAVAWYQQKPGKAPKLLIYWASTRHTGVPSRFSGSGSGTEFTLTISSLQPEDFATYYCQQYSSYPLTFGQGTKVEIK |
| 0.115 nM | 6.84e-06 s⁻¹ | 59600 M⁻¹ s⁻¹ | humanized anti-Ang2 antibody 2C8H22 (antibody, V domains shown, Full-length human IgG1) VH: QVQLVQSGAEVKKPGASVKVSCKASGYSFTSYWMHWVRQAPGQGLEWIGMIDPSDSETRLNQKFKDRVTMTRDTSTSTVYMELSSLRSEDTAVYYCARRFYYGSDWYFDVWGQGTLVTVSS VL: DIQLTQSPSFLSASVGDRVSITCKASQDVGTAVAWYQQKPGKAPKLLIYWASTRHTGVPDRFSGSGSGTEFTLTISSLQPEDFATYYCQQYSSYPLTFGQGTKVEIK |
| 0.0445 nM | 3.99e-06 s⁻¹ | 89600 M⁻¹ s⁻¹ | humanized anti-Ang2 antibody 2C8H33 (antibody, V domains shown, Full-length human IgG1) VH: QVQLVQSGAEVKKPGASVKVSCKASGYSFTSYWMHWVRQAPGQGLEWIGMIDPSDSETRLNQKFKDKASMTRDTSTSTVYMELSSLRSEDTAVYYCARRFYYGSDWYFDVWGQGTLVTVSS VL: DIQLTQSPSFLSASVGDRVSITCKASQDVGTAVAWYQQKPGKAPKLLIYWASTRHTGVPDRFSGSGSGTEFTLTISSLQPEDFADYFCQQYSSYPLTFGQGTKVEIK |
